Tested on: HK-2 cells
Test: Sepsis-associated AKI model: cell-free hemoglobin-treated HK-2 cells, MTT, LDH, CC3, Ki-67, MDA
Type: cell-based
Method: Immortalized human cortical and proximal tubular epithelial (HK-2) cells were cultured in DMEM-F-12 with FBS [10% (wt/vol)] (Life Technologies, Carlsbad, CA), Insulin-Transferrin-Selenium (ITS) (Corning, Corning, NY), hydrocortisone (0.1 μM), and 1% Penicillin/Streptomycin. […] To induce the sepsis-associated AKI model, cells at confluence were exposed to 1 mg/ml purified cell-free hemoglobin (CFH) for 48 h. For all experiments, we used CFH purified from normal human blood by high pressure liquid chromatography (Pishchany, G., et al. J Vis Exp. 2013 Feb. 7 (72): 50072). After 48 h, the control or treated cells were harvested for immunostaining or assays. In both models, culture media was replaced after 48 h. For iNP-EV treatment, 10 μg of EVs was added to cells for the next 24 h.
The organoids were washed with PBS and then treated with MTT (3-(4,5-dimethylthiazol-2-yl)-2,5-diphenyltetrazolium bromide) reagent (Sigma-Aldrich) (1 mg/ml) for at least 60 min, leading to the purple formazan formation in living cells. The reagents were then removed and isopropanol was added to dissolve the insoluble formazan. The absorbance of the colored solution was measured using a microplate reader at 560 nm and 690 nm. Background absorbance at 690 nm was subtracted from absorbance at 560 nm and the O.D. values were plotted to measure cell viability.
LDH release from the cells was evaluated using CyQUANT™ LDH Cytotoxicity Assay Kit. Briefly, cell culture medium was collected for other purposes at 48 h after the treatment. The cells were treated with 10% Triton X-100 and incubated for 15 min before to obtain the maximum LDH release from the sample. Cell culture media was collected and 50 μl of each sample was transferred into a 96-well opaque-walled, non-transparent assay plate. The LDH detection reagent was prepared by combining the LDH detection enzyme mix and reductase substrate. Then 50 μl of detection reagent was added to each well. The wells were incubated for 60 min at room temperature. […] was recorded on a plate reader at 490 nm and the corresponding O.D. was plotted to quantify cell death.

[1] = HK-2, 1 mg/ml CFH 48 h vs control

CFH: cell-free hemoglobin purified from normal human blood by high pressure liquid chromatography; induces sepsis-associated AKI model
concentration of Malondialdehyde (MDA), lipid peroxidation (HK-2, 1 mg/ml CFH 48 h, without CFH ~3.5 μM, p<0.0001): 22.5 µM | cleaved caspase-3 staining [1]: increased | proliferation by Ki-67 staining [1]: not different between the groups | LDH release (HK-2, 1 mg/ml CFH 48 h vs control, p<0.005): higher LDH release | viability (MTT assay) (HK-2, 1 mg/ml CFH 48 h vs control, p=0.0001): substantial decline in viability

Source: patent publication US20250221941A1, “NEPHRON PROGENITOR EXOSOMES” (VANDERBILT UNIVERSITY, priority 2021, published 2025)
